Measured values: patent US20060286035A1 (CYTOS BIOTECHNOLOGY, published 2006)

Legend:
T-cadherin [1] = molecular target: T1, T-cadherin (mouse, UniProt Q9WTR5 139-693); experiment: flow cytometry titration on 293-EBNA cells transfected with pGF-T-cadherin; half-maximal concentration divided by the molecular weight
T1 construct: whole, on cells; also called adiponectin receptor; pGF-T-cadherin
T1 sequence (looked up): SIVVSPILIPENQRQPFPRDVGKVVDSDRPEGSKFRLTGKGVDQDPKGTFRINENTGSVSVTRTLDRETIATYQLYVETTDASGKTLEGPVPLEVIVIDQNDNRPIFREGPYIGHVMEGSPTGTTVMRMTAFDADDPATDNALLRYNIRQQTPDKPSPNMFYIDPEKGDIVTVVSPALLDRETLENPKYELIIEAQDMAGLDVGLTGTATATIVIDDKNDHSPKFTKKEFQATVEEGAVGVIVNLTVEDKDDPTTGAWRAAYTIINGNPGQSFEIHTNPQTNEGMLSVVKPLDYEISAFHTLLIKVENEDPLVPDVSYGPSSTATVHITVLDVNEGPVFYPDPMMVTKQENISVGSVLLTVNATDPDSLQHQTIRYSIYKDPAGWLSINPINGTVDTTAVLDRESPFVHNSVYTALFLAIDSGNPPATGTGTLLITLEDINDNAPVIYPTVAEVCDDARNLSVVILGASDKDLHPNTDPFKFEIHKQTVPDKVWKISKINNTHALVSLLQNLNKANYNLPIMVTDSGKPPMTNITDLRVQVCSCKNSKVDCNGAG
Description: (§1) 293-EBNA cells were transfected with pGF-T-cadherin. After two days the cells were harvested and stained with decreasing amounts of Acrp30-FLAG-C (50, 25, 12.5, 6.3, 3.1, 1.6, 0.8, 0.4 and 0 μg/ml) as described in example 6. To evaluate the dissociation constant, the geometric mean fluorescence (GMFl) of the GFP positive population was determined using FACS Winmdi software. The GMFl was then normalized as follows: (GMFL of the sample minus GMFl of samples stained with secondary reagents only) divided by maximal GMFL. The protein concentration is shown on the X axis and the normalised GMFL is shown on the Y axis.
(§2) In order to determine the dissociation constant of the adiponectin-T-cadherin interaction, 293-EBNA cells were transfected with pGF-T-cadherin as described in example 6. […] The cells were then analysed by FACS using a FACS Calibur (Becton Dickinson). To determine the binding affinity, the geometric mean fluorescence of the GFP positive population was determined using FACS WINmdi software. The geometric mean fluorescence was then normalised by deducing the mean fluorescence of the sample which was stained with the secondary reagents only from the different samples and then all the values were divided by the maximal fluorescence. The normalised values for the mean fluorescence were than plotted against the concentration of Acrp30-FLAG-C. […]

T-cadherin [2] = molecular target: T1, T-cadherin; experiment: flow cytometry titration on 293-EBNA cells transfected with pGF-T-cadherin; normalised geometric mean fluorescence of the GFP positive population
Description: as §1, §2

- Kd (T-cadherin [1]): 83 nM
- EC50 (T-cadherin [2]): 2.2 µg/mL
B1: Acrp30-FLAG-C (ligand)
chain: DADPEDDVTTTEELAPALVPPPKGTCAGWMAGIPGHPGHNGTPGRDGRDGTPGEKGEKGDAGLLGPKGETGDVGVTGAEGPRGFPGTPGRKGEPGEAAYMYRSAFSVGLETRVTVPNVPIRFTKIFYNQQNHYDGSTGKFYCNIPGLYYFSYHITVYMKDVKVSLFKKDKAVLFTYDQYQEKNVDQASGSVLLHLEVGDQVWLQVYGDGDHNGLYADNVNDSTFTGFLLYHDTNSLDDYKDDDDK
notes: The molecular weight used for the Kd is 26546 g/mol (monomer); Three bands on SDS-PAGE from differential glycosylation; also called Adiponectin-bait Acrp30-FLAG-C; adiponectin
